Results as given in patent US20260022160A1 (AFFYXELL THERAPEUTICS, published 2026).
Values belong to the binder of their own block, whether it stands above or below them.

Assays:
[1] = biological target: T1, human CD40L (human, UniProt P29965 113-261, limits assumed); assay: direct binding ELISA on plate-coated hCD40L (5 ug/ml), detection biotinylated anti-cystatin A antibody + polyHRP-streptavidin, OD 450-630 nm
T1 construct: also called hCD40L; huCD40L
T1 sequence (looked up): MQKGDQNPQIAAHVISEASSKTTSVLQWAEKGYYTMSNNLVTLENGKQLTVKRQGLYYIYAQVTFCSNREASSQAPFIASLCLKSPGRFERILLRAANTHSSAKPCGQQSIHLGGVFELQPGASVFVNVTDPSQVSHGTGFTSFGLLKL
Procedure: Plates were washed 2 times with 150 μl of washing buffer (PBS, Tween 20 0.1%) with a plate washer and saturated with Casein 5% (Sigma) in PBS for 90 minutes at room temperature (25±1° C.). For binding, each DAW01 clone and rhCD40 Fc were added to the plate, starting from 1 μM, 1 in 3 and 300 nM, 1 in 3 respectively. Plates were washed 3 times as described previously. […] Then, cystatin A biotinylated polyclonal antibody (BAF1407) was diluted to a concentration of 0.05 μg/ml in dilution buffer (PBS, 1% casein, 0.01% Tween 20) and the plate was incubated for 90 minutes at room temperature (25±1° C.). PolyHRP-streptavidin was then diluted in dilution buffer and the plates were incubated for 90 minutes at room temperature (25±1° C.). The plates were then washed 3 times as described previously, and the substrate (TMB, Pierce Thermo-Scientific) was added to the plates for 10 minutes. The reaction was stopped using an acidic solution, and plates were read at 450-630 nm.

[2] = biological target: T2, human CD40L expressed on HEK293 cells (human, UniProt P29965 1-261); assay: flow cytometry, clone at 1 uM on hCD40L-HEK293 cells (hatched), HEK-293 negative cells as control (open), detection anti-Cystatin A + A488 anti-goat
T2 construct: whole, on cells; also called hCD40L-HEK293 cells; hCD40L-HEK-293 cells (Crown Biosciences, C2041)
T2 sequence (looked up): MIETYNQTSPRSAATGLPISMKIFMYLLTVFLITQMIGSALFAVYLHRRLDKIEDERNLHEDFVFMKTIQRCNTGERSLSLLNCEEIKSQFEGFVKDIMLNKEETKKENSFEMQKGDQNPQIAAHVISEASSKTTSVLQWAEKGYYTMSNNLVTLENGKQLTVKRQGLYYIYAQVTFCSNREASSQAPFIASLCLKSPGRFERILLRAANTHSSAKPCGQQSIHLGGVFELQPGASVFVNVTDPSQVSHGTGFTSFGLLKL
Procedure: The cells were resuspended in PBS and 200,000 cells per well were dispatched in a round bottom 96 well plate. Cells were washed with PBS. The stefin A protein variant and controls were diluted in staining buffer containing 1% BSA, 0.01% Sodium Azide (NaN3), 2 mM EDTA in DPBS in duplicate and added on cells for staining for approximately 60 min at 4±1° c. Cells were washed and the secondary anti-Cystatin A (R&D, AF1407) was diluted 0.2 mg/ml in staining buffer and added on cells for staining for approximately 45 min at 4±1° c. Cells were washed again and the detection antibody A488 anti-goat (ThermoFisher, A21467) was diluted 1:500 in staining buffer and added to the cells for staining (approximately 30 min at 4±1° C.). Finally, the cells were washed and live and dead cells were stained using L/D stain Zombie Yellow (Biolegend, 423103) diluted in staining buffer for 10 min at 4±1° C. Cells were washed again and fixation buffer (R&D) was added to each well for 10 min at 4±1° C. then PBS with EDTA (Lonza) was added prior reading the plate on the flow cytometer (Guava 12 HT, Millipore). Dead cells were excluded, and the fluorescent green channel (488 nm/525/30) was acquired. Results were analyzed using Incyte and data were plotted using GraphPad.

B2: stefin A protein variant clone 229 (designed binder)
chain: MIPGGLSEAKPATPEIQEIVDKVKPQLEEKTGETYGKLEAVQYKTQVVQYKIITWWSGTNYYIKVRAGDNKYMHLKVFKSLVYKNKRGGHEDLVLTGYQVDKNKDDELTGF
- EC50 [1]: 15.3 nM

B5: stefin A protein variant clone 261 (designed binder)
chain: MIPGGLSEAKPATPEIQEIVDKVKPQLEEKTGETYGKLEAVQYKTQVVVDQVWSENAGTNYYIKVRAGDNKYMHLKVFKSLPYLWRKHAVEDLVLTGYQVDKNKDDELTGF
- % Positive [2]: 97.9%
- MFI [2]: 7050 MFI
- EC50 [1]: 26.4 nM

B6: stefin A protein variant clone 248 (designed binder)
chain: MIPGGLSEAKPATPEIQEIVDKVKPQLEEKTGETYGKLEAVQYKTQVVYDELYHEKAGTNYYIKVRAGDNKYMHLKVFKSLEYKFRNLEEDLVLTGYQVDKNKDDELTGF
- % Positive [2]: 98.1%
- MFI [2]: 9620 MFI

B7: stefin A protein variant clone 243 (designed binder)
chain: MIPGGLSEAKPATPEIQEIVDKVKPQLEEKTGETYGKLEAVQYKTQVVFTYQISYTVGTNYYIKVRAGDNKYMHLKVFKSLRWRYPARKPEDLVLTGYQVDKNKDDELTGF
- % Positive [2]: 98.3%
- MFI [2]: 4400 MFI
- EC50 [1]: 57.5 nM

B9: stefin A protein variant clone 246 (designed binder)
chain: MIPGGLSEAKPATPEIQEIVDKVKPQLEEKTGETYGKLEAVQYKTQVVHIPALKVHAGTNYYIKVRAGDNKYMHLKVFKSLPYWYRHDQEEDLVLTGYQVDKNKDDELTGF
- EC50 [1]: 17.3 nM

Results, then the binder that gave them:

- EC50 [1]: 3.07 nM
B1: stefin A protein variant clone 233 (designed binder)
chain: MIPGGLSEAKPATPEIQEIVDKVKPQLEEKTGETYGKLEAVQYKTQVVLQDQWPWRDGTNYYIKVRAGDNKYMHLKVFKSLTYGKKWYSWEDLVLTGYQVDKNKDDELTGF

- EC50 [1]: 6.12 nM
B3: stefin A protein variant clone 231 (designed binder)
chain: MIPGGLSEAKPATPEIQEIVDKVKPQLEEKTGETYGKLEAVQYKTQVVYYQIITWWQGTNYYIKVRAGDNKYMHLKVFKSLGIRKKQQQREDLVLTGYQVDKNKDDELTGF

- EC50 [1]: 12.4 nM
B4: stefin A protein variant clone 227 (designed binder)
chain: MIPGGLSEAKPATPEIQEIVDKVKPQLEEKTGETYGKLEAVQYKTQVVHDVFYDQKAGTNYYIKVRAGDNKYMHLKVFKSLKWWYRIGNPEDLVLTGYQVDKNKDDELTGF

- % Positive [2]: 98.4%
- MFI [2]: 8540 MFI
B8: stefin A protein variant clone 270 (designed binder)
chain: MIPGGLSEAKPATPEIQEIVDKVKPQLEEKTGETYGKLEAVQYKTQVVLDGLYHVNSGTNYYIKVRAGDNKYMHLKVFKSLFYYYRSEPTEDLVLTGYQVDKNKDDELTGF

- EC50 [1]: 45.6 nM
B10: stefin A protein variant clone 244 (designed binder)
chain: MIPGGLSEAKPATPEIQEIVDKVKPQLEEKTGETYGKLEAVQYKTQVVRENWYGEFAGTNYYIKVRAGDNKYMHLKVFKSLLYIYRHPNYEDLVLTGYQVDKNKDDELTGF
